Test [1] concerns the target His-tagged OrbS-CtetraA (OrbS with all four C-terminal cysteine residues replaced by alanine). Nature of the test: BLI. For orientation: In BLI a coated tip is dipped into the sample, and binding shifts an interference pattern.
Test [2] concerns the target T1, E. coli core RNA polymerase (core RNAP, α2ββ'ω) (E. coli, UniProt P0A7Z4 1-329; P0A8V2 1-1342; P0A8T7 1-1407; P0A800 1-91).
T1 construct: RNA polymerase subunit alpha, E. coli; RNA polymerase subunit beta, E. coli; RNA polymerase subunit beta', E. coli; RNA polymerase subunit omega, E. coli; Commercial core enzyme (NEB); also called E. coli RNAP core enzyme; core E. coli RNAP; source: bought: NEB; copies: 2 + + +
The test can be described thus: BLI. The conditions noted are these: both partners purified.

Several values for one entry are separate records, joined by “and”; a condition that tells them apart may be missing. Equal entries are not always repeated.

“E. coli core RNA polymerase (core RNAP, α2ββ'ω) (from UniProt P0A7Z4 1-329; P0A8V2 1-1342; P0A8T7 1-1407; P0A800 1-91) (complex)”: in test [1], the Kd (as a rule, a measure of binding affinity in units of concentration) is 20 nM and 160 nM; the kon (usually a measure of how fast the partners come together) was 15000 M⁻¹ s⁻¹ and 9100 M⁻¹ s⁻¹.

B1: His-tagged Burkholderia cenocepacia OrbS (iron starvation ECF σ factor) (natural protein, UniProt B4E986 1-222, looked up)
chain: MAMAEVLDRPAAAAANPFLGSYPDLPPRAAPRARRASEPRAQGALLDVLISHRAMLVNVARGFVGCASRAEDVVHDVFVKLVEFPNQDAVRQPVAYVTRMVRNASIDACRRQNLENVYHTEEDDGFDVPSPEPTPEAALMTRDTLRRVWAALDDLPARSRAAFEMVRLREETLQTAARALNVSQTLVHFMVRDAERHCAECLDACHRGVACPVFLGGRARRR
notes: also called σ^OrbS; BCAL1688
As for B1, in test [2], binding was characterised by a dissociation constant (Kd) of 83 nM; the off-rate (koff) (in general, the first-order rate constant of dissociation) was 0.00045 s⁻¹; the kon amounted to 5400 M⁻¹ s⁻¹.

(Values after PMC9023288, “The Burkholderia cenocepacia iron starvation σ factor, OrbS, possesses an on-board iron sensor” (Nucleic Acids Research, 2022).)
